# Test results published in patent US9199028B2, “Use of entrained neutrophils to treat metastatic and micrometastatic disease in at risk patients” (MEMORIAL SLOAN-KETTERING CANCER CENTER, priority 2010, dated 2015).
# Columns and labels:
# MDA-MB-231 cells = assay: In vitro killing assay: human neutrophils co-cultured with luciferase labelled MDA-MB-231 cells; assay type: cell-based; details: naïve human neutrophils:tumor cells 1:1, chemokine 100 ng/ml (rhG-CSF 20 ng/ml), overnight
# Excerpt: Luciferase is under a constitutive promoter so cell death results in a decrease in luciferase activity because there is no transcription/translation of the lucierferase gene. The assay itself requires lysing of the cell to release the luciferase to mix with the luciferin and measure the luminescence. But it isn't that they dying cell releases luciferase. More signal means more luciferase which means more live cells. […]. […] Nave human neutrophils were co-cultured with MDA-MB-231 cells. […] Cells were seeded at a ratio of human neutrophils:human tumor cells=1:1.
# Antibodies used for immunohistochemistry—MMP9, F4/80 and CCR2 (all from AbCam), Myeloperoxidase (Dako), Ly-6G and Cd11b (both from BD), and Cleaved Caspase 3 (Cell signalling). Antibodies used for western blotting—Actin (Sigma), CCL2 (AbCam) and CCL5 (R&D) p-SMAD2 (cell signalling). Antibodies used for FACS analysis FITC-Ly-6G, FITC-Cd11b, FITC-F4/80, FITC-Cd34 and FITC-c-Kit (all from BD) and VEGFR1-AP (R&D). Neutrophil Depletion Neutrophil depletion was achieved using daily IP injections of 12.5 μg Rat anti-Gr-1 antibody (BD) or Rat anti-Ly-6G antibody (BD) starting on day 3 post tumour engraftment. Starting on day 14, neutrophil depleting antibodies were administered twice daily. Control mice were injected with […] Rat isotype control (BD). Neutrophil depletion was monitored by manual blood differentials and FACS analysis. Flow Cytometry Peripheral blood was collected into EDTA-coated tubes, washed and resuspended in FACS buffer solution (PBS, 2% heat-inactivated FCS, 5 mM EDTA, and 0.02% sodium azide). The samples were blocked with […] and then incubated with fluorophore-conjugated antibodies. Erythrocytes were then lysed with FACS lysing solution (BD Biosciences) and the cell suspensions were analyzed on a FACSCalibur (BD Biosciences). Colony Formation Assay Female nude mice were orthotopically injected with 5×10^6 puromicin resistant 4T1 cells. On days 7 and 14 post tumour engraftment the mice were sacrificed and perfused with PBS. The lungs and livers were removed, washed with PBS and dissociated with Collagenase A (Roche). The single cell suspension was then plated onto puromicin containing media and selected for 14 day. Colonies were stained with Methylene-Blue and counted manually. Mouse Neutrophil Purification Whole blood was collected by cardiac puncture using heparinized (Sigma) syringe. The blood was diluted with 5 volumes of PBS containing 0.5% BSA and subjected to a discontinuous Histopaque (Sigma) gradient (1.077 and 1.119). Neutrophils were collected from the 1.077-1.119 interface, lymphocytes and monocytes collected from the plasma-1.077 interface. RBCs were eliminated by hypotonic lysis. The cells were washed twice with PBS-BSA and re-suspended in OptiMEM (Invitrogen) 0.5% FBS in a final concentration of 2×10^6 cells/ml. Neutrophil purity and viability were determined visually and were consistently >98%. Human Neutrophil Purification As part of a Memorial Sloan-Kettering Cancer Center institutionally approved protocol, blood samples (˜10 cc) were collected from healthy volunteers or from patients who were already having blood drawn for pre-surgical testing. Patients were consented accordingly as part of the approved protocol. […] Patients had either mastectomies or lumpectomies planned and had blood drawn prior to definitive surgical removal of their primary tumor or chemotherapy. Blood samples were transferred to the lab for analysis no more than 1 hour post-blood draw. Heparinzed blood (20 U/ml final) was mixed with an equal volume of Dextran 500 (3% in saline) and incubated 30 minutes at room temperature. The leukocyte-rich supernatant was layered on top of histopaque 1077 (Sigma) and centrifuged. Neutrophils, collected in the pellet fraction, were resuspended in 10 ml 0.2% NaCl for 30 seconds to remove contaminating erythrocytes. Isotonicity was restored by the addition of 10 ml 1.6% NaCl. […]
# 4T1 cells = assay: In vivo stimulation of neutrophils with chemokines, purified neutrophils co-cultured with 4T1 cells; assay type: cell-based, mouse; details: healthy mice treated in vivo with G-CSF alone or G-CSF plus chemokine
# Description: A. To test which chemokines may participate in the stimulation of neutrophils, neutrophils purified from healthy mice were co-culture with luciferase labeled 4T1 cells in the presence (20 ng/ml of chemokine) or absence of certain chemokines for an overnight incubation. […] B. To test which chemokines are sufficient for in vivo stimulation of neutrophils healthy mice were treated with G-CSF (to boost neutrophil numbers) and either CCL2, CCL5 or CXCL1. Control mice were treated with G-CSF alone. Neutrophils were purified from these mice and co-cultured with Luciferase-labeled 4T1 cells. […] Conclusion—CCL2 and to a lesser degree CCL5 can stimulate tumor cell killing both in vitro and in vivo.
molecule,measurement,setting,value
"rhG-CSF: recombinant methionyl human granulocyte colony-stimulating factor (Neupogen, Amgen) (protein, chains of the INN, looked up, N-terminal methionine) MTPLGPASSLPQSFLLKCLEQVRKIQGDGAALQEKLCATYKLCHPEELVLLGHSLGIPWAPLSSCPSQALQLAGCLSQLHSGLFLYQGLLQALEGISPELGPTLDTLQLDVADFATTIWQQMEELGMAPALQPTQGAMPAFASAFQRRAGGVLVASHLQSFLEVSYRVLRHLAQP",neutrophil cytotoxicity / neutrophil mediated killing of MDA-MB-231 cells,MDA-MB-231 cells,does not induce neutrophil mediated cell killing
same,viability of 4T1 cells co-cultured with neutrophils purified from chemokine treated mice,4T1 cells,did not induce a reduction in cell viability
